This note sets out measurements from PMC6015732.

pKd: −log10 of the molar value.

Assay in all cases: SPR
Background: Surface plasmon resonance follows binding to a sensor surface in real time, without labels.

Test [1] addresses RG802 (Rituxan clone 802, glycosylated) (human).
Test [2] concerns the target IgG1 (wild-type glycosylated IgG1) (human) [IgG part: P01857].
Test [3] deals with RG801 (Fc domain of glycosylated clone 801 constructed with the Fab arms of Rituxan) (human).
In test [4] the target is RA801 (Fc domain of aglycosylated clone 801 constructed with the Fab arms of Rituxan) (human).

What is called pKd is the negative decadic logarithm of the Kd, by convention in mol/L. On to “monomeric human FcRn–β2-microglobulin (from UniProt P55899 24-365; P61769 21-119) (complex)”, for which the negative logarithm of the Kd (pKd) in test [1] was 6.54; in test [2], 6.21; in test [3] it was 6.55; in test [4], 6.02.

Regarding “human FcγRI (monomeric, soluble) (from UniProt P12314 16-292) (receptor)”, the negative-log Kd (pKd) in test [3] was 6.19.
